In patent US20130110249A1 (UNIVERSITY OF ROCHESTER, published 2013):

Experiments:
[1] = target: T1, recombinant His-glucosaminidase (His-Gmd) of Staphylococcus aureus autolysin (Staphylococcus aureus, UniProt A7X0T9 775-1254); assay: method not stated; hybridomas screened by ELISA and western dot-blot
T1 construct: also called Gmd-His; recombinant Gmd
T1 sequence: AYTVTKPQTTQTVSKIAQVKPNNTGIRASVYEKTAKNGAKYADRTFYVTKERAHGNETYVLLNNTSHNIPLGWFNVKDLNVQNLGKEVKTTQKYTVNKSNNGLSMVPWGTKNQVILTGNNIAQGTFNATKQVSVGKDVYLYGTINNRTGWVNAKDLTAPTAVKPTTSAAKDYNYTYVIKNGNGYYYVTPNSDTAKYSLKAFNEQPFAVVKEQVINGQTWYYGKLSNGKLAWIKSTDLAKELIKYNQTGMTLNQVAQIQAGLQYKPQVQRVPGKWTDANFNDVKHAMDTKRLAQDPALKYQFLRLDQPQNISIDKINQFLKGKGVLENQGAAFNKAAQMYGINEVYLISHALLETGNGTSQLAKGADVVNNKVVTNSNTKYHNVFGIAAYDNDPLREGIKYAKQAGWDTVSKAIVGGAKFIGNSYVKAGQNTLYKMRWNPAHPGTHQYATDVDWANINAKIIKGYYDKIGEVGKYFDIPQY

[2] = target: T2, native Gmd of S. aureus Xen29 (Staphylococcus aureus, UniProt P0C5Z8 776-1255, limits assumed); assay: estimate from the dose dependence of the Xen29 growth (light scattering) assay, assuming about ten times the Kd is required
T2 construct: domain: glucosaminidase (Gmd) subunit of autolysin
T2 sequence (looked up): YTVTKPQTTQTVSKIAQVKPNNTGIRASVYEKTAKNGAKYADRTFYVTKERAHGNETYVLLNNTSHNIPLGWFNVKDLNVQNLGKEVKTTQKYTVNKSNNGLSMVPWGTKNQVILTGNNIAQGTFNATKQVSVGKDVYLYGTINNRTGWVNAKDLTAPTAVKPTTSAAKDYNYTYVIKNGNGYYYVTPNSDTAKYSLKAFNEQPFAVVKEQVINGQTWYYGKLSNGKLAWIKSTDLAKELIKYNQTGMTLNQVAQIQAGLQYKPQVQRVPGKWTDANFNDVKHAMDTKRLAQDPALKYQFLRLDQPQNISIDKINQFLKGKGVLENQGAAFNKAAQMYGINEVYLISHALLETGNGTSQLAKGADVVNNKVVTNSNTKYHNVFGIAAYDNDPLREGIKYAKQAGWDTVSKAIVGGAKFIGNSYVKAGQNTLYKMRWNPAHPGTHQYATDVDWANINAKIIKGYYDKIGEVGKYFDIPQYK

Row | Binder | Kd [1] [nM] | Kd [2] [nM]
1 | anti-Gmd monoclonal antibody 1C11 (antibody, V domains shown, also called mAb 1C11; mouse 1C11) VH: QIQLVQSGPELKKPGETVKISCKASGYTFTTYGMSWVNQAPGKGLKWMGWINTYSGVPTYADDFKGRFVFSLETSASTAYLQINNLKNEDTATYFCAREEYSSGYAAWFPYWGQGTLVTVSA VL: DIVLTQSPATLSVTPGDSVSLSCRASQSISNNLHWYQQKSHESPRLLIEYASRSISGIPSRFSGGGSGTDFTLSINSVESEDFGLYFCQQSNSWPLTFGAGTKLELK | ≤ 1 | ~1
2 | anti-Gmd monoclonal antibody 3A8 (antibody, V domains shown, also called mAb 3A8; hybridoma 3A8) VH: EVQLQESGGGLVQPGGSMKLSCAASGFTFSDAWMDWVRQSPEKGLEWVAEIKDKTNNHATYYAESVKGRFTISRDVSKSRVFLQMNSLRPEDTGIYYCTSGPYFDYWGQGTTLTVSS VL: DIVMTQSHKFMSTSVGDRVSITCKASQDVSTAVAWYQQKPGQSPKLLIYWTSTRHTGVPDRFTGSGSGTDFTLTISSVQAKDLALYYCQQHYTTPYTFGGGTKLEIK | ≤ 1 | ~1
